# Key:
# [1] = molecular target: the molecule itself; experiment: SEC
# [2] = molecular target: the molecule itself; experiment: AUC
Protein,stoichiometry N [1],stoichiometry N [2]
"IreB Y79E (purified recombinant) (natural protein, Enterococcus faecalis) MGFTDETVRFDFDDNRKKAISETLETVYRALEEKGYNPINQIVGYLLSGDPAYIPRYQDARNLIRRHERDEIMEELTKEYLANHGIDIK",2,–
"IreB L81W (purified recombinant) (natural protein, Enterococcus faecalis) MGFTDETVRFDFDDNRKKAISETLETVYRALEEKGYNPINQIVGYLLSGDPAYIPRYQDARNLIRRHERDEIMEELTKYYWANHGIDIK",2,–
IreB (purified recombinant wild-type) (natural protein) MGFTDETVRFDFDDNRKKAISETLETVYRALEEKGYNPINQIVGYLLSGDPAYIPRYQDARNLIRRHERDEIMEELTKYYLANHGIDIK,2,2.05

# From article PMC5527686 (Journal of molecular biology, 2017)
